These results are taken from PMC5423124.

The target in this test is Schistosoma japonicum glutathione-S-transferase with mPyTK at position 52 (GST-E52mPyTK) (Schistosoma japonicum) [GST: P08515]. The test can be described thus: cross-linking.

For the substance “Schistosoma japonicum glutathione-S-transferase with mPyTK at position 52 (GST-E52mPyTK) (from UniProt P08515 2-218) (enzyme)”, the photo-cross-linking yield of the covalent dimer is 53%.
